Experimental data as given in patent publication US20220380455A1 (Alector, published 2022).
Where “and” joins values, the source holds several entries; their conditions need not be identical. Equal values may be shown once.

How the values were obtained:
MS4A6A ECL1 peptide = biological target: T1, MS4A6A ECL1 peptide (human); assay: peptide ELISA, hybridoma supernatant
T1 construct: the description elsewhere gives ECL1 as 68-84; Human and cyno ECL1 are said to be identical
T1 peptide: SASFSPNFTQVTSTLLNS
Experimental: Anti-MS4A6A hybridoma supernatants were tested for binding to MS4A6A peptides derived from ECL1 (amino acid residues 68-85 of human MS4A6A of SEQ ID NO:1) and ECL2 (amino acid residues 138-185 of human MS4A6A of SEQ ID NO:1) sequences, using an enzyme-linked immunosorbent assay (ELISA). Briefly, 96-well polystyrene plates were coated with 1-10 μg/mL of synthetic free or BSA-conjugated peptides in coating buffer (0.05M carbonate buffer, pH9.6, Millipore Sigma C3041) overnight at 4° C. Coated plates were then blocked with ELISA diluent (PBS+0.5% BSA+0.05% Tween20) for 1-hour, washed 3×300 μL in PBST (PBS+0.05% Tween20, Thermo 28352), and then the antibodies were added at various dilutions (100-1000×) in ELISA diluent. After 30 mins incubation (room temperature, with shaking), the plates were washed 3×300 μl in PBST. A secondary anti-mouse HRP antibody (Jackson Immunoresearch CAT #115-035-003) was added at a 1:1000 dilution in ELISA diluent (50 μL/well) and incubated for 30 minutes at room temperature with shaking. After a final set of washes (3×300 μl in PBST), 50 μL of TMB substrate (BioFx TMBW-1000-01) was added and the reaction was then quenched after 5-10 mins with 50 μL of stop solution (BioFx BSTP-1000-01). The quenched reaction wells were detected for absorbance at […] with a BioTek Synergy Microplate Reader using GENS 2.04 software.

cynomolgus (cyno) MS4A6A [1] = biological target: T2, cynomolgus (cyno) MS4A6A (cynomolgus, UniProt Q9H2W1 1-246 (human entry)); assay: flow cytometry, hybridoma supernatant, HEK293 transfected with cyno MS4A6A over parental HEK293; Screen 1
T2 construct: Full-length protein expressed in transfected HEK293, U937 or K562 cells (flow cytometry)
T2 chain: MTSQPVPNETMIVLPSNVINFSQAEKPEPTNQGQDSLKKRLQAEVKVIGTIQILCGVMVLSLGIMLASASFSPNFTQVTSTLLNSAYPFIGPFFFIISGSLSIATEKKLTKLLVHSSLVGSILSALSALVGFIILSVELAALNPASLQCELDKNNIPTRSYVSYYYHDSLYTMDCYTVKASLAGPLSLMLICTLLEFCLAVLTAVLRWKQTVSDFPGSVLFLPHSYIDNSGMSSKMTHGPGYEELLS
Experimental: (§1) Positive clones were expanded and then rescreened for specificity against HEK293 cells overexpressing cyno MS4A6A and parental HEK293 cells. Briefly, previously prepared, cryopreserved transiently-transfected cells were labeled with LIVE/DEAD Fixable Aqua Dead Cell Stain Kit (ThermoFisher Scientific L34957) on ice for 30 minutes. After a wash with PBS, 2×10⁵ cells were aliquoted per well in 96-well round bottom plates and incubated with 50 μl of culture supernatant on ice for 30 mins. […] Following this secondary incubation, the cells were again washed twice with ice-cold FACS buffer and resuspended in a final volume of 200 μl of FACS buffer. Analysis was performed on a FACS Canto system (BD Biosciences), with sort gates drawn to exclude dead (Aqua-positive) cells. […] The screen was repeated twice, and the numbers reported here represent the ratio of mean fluorescence level in transfected cells over parental cells.

MS4A6A ECL2 peptide = biological target: T3, MS4A6A ECL2 peptide (human); assay: array SPR (Carterra MX-96), antibody captured on anti-mouse IgG-Fc, ECL2 peptide injected
T3 construct: also called MS4A6A ECL-2 peptides
T3 peptide: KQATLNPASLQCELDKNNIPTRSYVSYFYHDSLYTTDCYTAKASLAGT
Experimental: Binding kinetic characterization of the purified antibodies to MS4A6A ECL1 and ECL2 peptides was performed by Carterra (South San Francisco, Calif.) using a proprietary array Surface Plasmon Resonance (SPR) instrument (MX-96) as follows. Antibodies were printed onto a CMD5OOD chip (Xantec #SPMX CMD500D lot #SC CMD500D0117.a Exp. 31.12.18) using the Continuous Flow Microspotter (CFM). First, the chip was activated with 100 mM MES pH 5.5, 100 μL EDC (133 mM final), 100 μL of S-NHS (33.3 mM final), for 7 minutes. A lawn of anti-mouse IgG-Fc (Jackson ImmunoResearch CAT #115-005-071 lot#130410) was injected for 15 minutes to establish a surface density of 10000-12000 RU, after which the chip surface was deactivated with 1 M ethanolamine at pH 8.5 for 10 minutes. Anti-MS4A6A antibodies in question, in the form of hybridoma supernatants diluted 2:1 with HBS-EP+buffer (Teknova CAT #H8022), were then printed as duplicates with a 20 minute and a 5 minutes print from the same sample solution. Control antibodies were diluted to 20 μ/ml for printing.
To perform kinetic analysis, the peptides in question were prepared in HBS-EP+buffer with lmg/ml BSA at final assay concentrations of 2000 nM, 400 nM, 80 nM, 16 nmM, and 3.2 nM. These were then injected on the chip for five minutes, followed by a seven-minute dissociation period at 8 uL per second in a non-regenerative kinetic series. Duplicate measurements for each anti-MS4A6A antibody were taken to ensure reproducibility.
Kₐ (association rate constant; Kₒₙ), Kd (dissociation rate constant; Koff) and KD (equilibrium constant) to MS4A6A ECL-2 peptides were calculated for each of the 23 anti-MS4A6A antibodies tested, the results of which are shown below in Table 5 (clones that bound too weakly to determine these values are denoted as N/A in Table 5).

cynomolgus (cyno) MS4A6A [2] = biological target: T2, cynomolgus (cyno) MS4A6A; assay: flow cytometry, hybridoma supernatant, HEK293 transfected with cyno MS4A6A over parental HEK293; Screen 2
Experimental: as §1

binding result (MS4A6A ECL1 peptide)	ratio of APC MFI on MS4A6A+/HEK parental cells (cynomolgus (cyno) MS4A6A [1]) [ratio]	Kd (MS4A6A ECL2 peptide)	koff (MS4A6A ECL2 peptide)	kon (MS4A6A ECL2 peptide)	ratio of APC MFI on MS4A6A+/HEK parental cells (cynomolgus (cyno) MS4A6A [2]) [ratio]	Binder
no binding	71.8	200 nM	0.001 s⁻¹	5300 M⁻¹ s⁻¹	136	6A-21 (antibody, V domains shown, Mouse hybridoma antibody, tested as hybridoma supernatant (mouse IgG, detected or captured via anti-mouse IgG Fc); also called anti-MS4A6A antibody 6A-21) VH: EVQLQQSGPELVKPGASVKMSCKASGYTFTDYFMKWVKQSHGKSLEWIGDINPKNGDTFYNQKFKGKATLTVDKSSSTAYMQLNSLTSEDSAVYYCARPGYFDVWGAGTTVTVSS VL: not shown
no binding	20.2	170 nM and 150 nM	0.00096 s⁻¹ and 0.001 s⁻¹	5700 M⁻¹ s⁻¹ and 6900 M⁻¹ s⁻¹	59.1	6A-14 (antibody, V domains shown, Mouse hybridoma antibody, tested as hybridoma supernatant (mouse IgG, detected or captured via anti-mouse IgG Fc); also called anti-MS4A6A antibody 6A-14) VH: QVQLKQSGPGLVQPSQSLSITCTVSGFSLTTYGVHWVRQSPGKGLEWLGVIWSGGSTDYNAAFISRLNISKDNSKSQVFFKMNSLQANDTAIYYCARGYGSSYEYFDVWGAGTTVTVSS VL: DIVLTQSPASLAVSLGQRATISCRASESVDSYGNSFMHWYQQKPGQPPKLLIYRASNLESGIPARFSGSGSRTDFTLTINPVEADDVATYYCQQSNEDPLTFGAGTKLELK
no binding	40.3	160 nM and 130 nM	0.00081 s⁻¹ and 0.00067 s⁻¹	5200 M⁻¹ s⁻¹ and 5100 M⁻¹ s⁻¹	45.5	6A-12 (antibody, V domains shown, Mouse hybridoma antibody, tested as hybridoma supernatant (mouse IgG, detected or captured via anti-mouse IgG Fc); also called anti-MS4A6A antibody 6A-12) VH: EVQLQQSGPELVKPGASVKISCKASGYSFTGYYMHWVKQSPEDSLEWIGAINPSTGGSTYSQKFKDKATLTVDKSSSTAYMQLKSLTSEESAVYYCTRFDGYGYWGQGTLVTVSS VL: DIVMTQAAFSNPVTLGTSASISCRSSKSLLHSNGITYLYWYLQKPGQSLQLLIYQMSNLASGVPDRFSGSGSGTDFTLRISRVEAEDVGVYYCAQNLELPWTFGGGTKLEIK
no binding	24.8	140 nM and 180 nM	0.00066 s⁻¹ and 0.00092 s⁻¹	4800 M⁻¹ s⁻¹ and 5300 M⁻¹ s⁻¹	30.3	6A-13 (antibody, V domains shown, Mouse hybridoma antibody, tested as hybridoma supernatant (mouse IgG, detected or captured via anti-mouse IgG Fc); also called anti-MS4A6A antibody 6A-13) VH: EVKVVESGGGLVQPGGSLRLSCATAGFTFTDYYMTWVRQPPGKALEWLGFIRNKANGYTTEYNSSVKGRFTISRDNSRSILYLQMNTLRAEDSATYYCARSMDYWGQGTSVTVSS VL: NIVMTQSPNSMSMSVGERVTLSCKASENVGTYVSWYQQKPDQSPKLLIYGASNRYTGVPDRFTGGGSATDFTLTISSVQAEDLADYHCGQTYSFPYTFGGGTKLEIK
no binding	175	390 nM and 250 nM	0.0023 s⁻¹ and 0.0021 s⁻¹	6000 M⁻¹ s⁻¹ and 8400 M⁻¹ s⁻¹	68.8	6A-22 (antibody, V domains shown, Mouse hybridoma antibody, tested as hybridoma supernatant (mouse IgG, detected or captured via anti-mouse IgG Fc); also called anti-MS4A6A antibody 6A-22) VH: EVNLEESGGDLVQPGGSMKLSCLASGFTFSDAWMDWVRQSPEKGLEWVAEIKNKANNYVTFYAASVKGRFTISRDDSKSSVYLQMNNLRPEDTGIYFCTRGSVYGNWFPYWGQGTLVTVSA VL: DIVMSQSPSSLAVSAGEKVTMTCKSSQSLFNSRTRKNYLTWYQQKPGQSPKVLIYWASTRESGVPDRFTGSGSGTDFSLTISSVQADDLAVYYCKQSYNLLTFGAGTRLELK
no binding	3.8	76 nM and 86 nM	0.00038 s⁻¹ and 0.00043 s⁻¹	5000 M⁻¹ s⁻¹	8.4	6A-15 (antibody, V domains shown, Mouse hybridoma antibody, tested as hybridoma supernatant (mouse IgG, detected or captured via anti-mouse IgG Fc); also called anti-MS4A6A antibody 6A-15) VH: EVMLVESGGGLVKPGGSLKLSCAASGFTFSSHAMSWVRQTPEKRLEWVATISSGDSYTYYPDSVKGRFTISRDNAKNTLYLQMTSLRSEDTAMYYCIRHIYYGNLYYAMDYWGQGTSVTVSS VL: DVLMTQTPLSLPVSLGDQASISCRSSQSIIHNNGNTYLEWYLQKPGQSPKLLIYKVSNRFSGVPDRFSGSGSGTYFTLKISRVEADDLGVYYCFQGSHVPWTFGGGTKLEIK
no binding	12.6	290 nM	0.0011 s⁻¹	3900 M⁻¹ s⁻¹	84	6A-9 (antibody, V domains shown, Mouse hybridoma antibody, tested as hybridoma supernatant (mouse IgG, detected or captured via anti-mouse IgG Fc); also called anti-MS4A6A antibody 6A-9) VH: EVQLQQSGPELVKPGASVKISCKASGYSFTGYYIHWVKESHVKSLEWIGRINPKNGVTSYNQNFKDKASLTVDRSSSTAYMDLYSLTSEDSAVYYCASTFITGWGQGTSLTVSS VL: DVLLTQAPLSLPVSLGDQASISCRSSQTIVHSDGNTYLEWYLQKPGQSPKLLIYTVSNRFSGVPDRFSGSGSGTDFTLKISRVEAEDLGVYYCFQGSHVPWTFGGGTKLEIK
no binding	4.1	180 nM	0.00049 s⁻¹	2700 M⁻¹ s⁻¹	20.3	6A-18 (antibody, V domains shown, Mouse hybridoma antibody, tested as hybridoma supernatant (mouse IgG, detected or captured via anti-mouse IgG Fc); also called anti-MS4A6A antibody 6A-18) VH: EVQLQQSGPELVKPGASVKISCKASGYSFTGYYIHWVKESHVKSLEWIGRINPKNGVTSYNQNFKDKASLTVDRSSSTAYMDLYSLTSEDSAVYYCASTFITGWGQGTSLTVSS VL: DVLLTQAPLSLPVSLGDQASISCRSSQTIVHSDGNTYLEWYLQKPGQSPKLLIYTVSNRFSGVPDRFSGSGSGTDFTLKISRVEAEDLGVYYCFQGSHVPWTFGGGTKLEIK
no binding	8.6	–	–	–	61.7	6A-11 (antibody, V domains shown, Mouse hybridoma antibody, tested as hybridoma supernatant (mouse IgG, detected or captured via anti-mouse IgG Fc); also called anti-MS4A6A antibody 6A-11) VH: EVQLQQSGPDLVKPGASVKISCKASGYSFTGYYIHWVKQSHIKSLEWIGRINPNNGATNYNQIFKDKATLTVDRSSSTAYMDLHSLTSEDSAVYYCVSTFITGWGQGTTLTVSS VL: DVLLTQTPLSLPVSLGDQASISCRSSQTIVHSDGNTYLEWYLQRPGLSPKLLIYKVSIRFSGVPDRFSGSGSGTDFTLKISRVEAEDLGVYYCFQGSHVPWTFGGGTKLEIK
no binding	14.4	180 nM and 150 nM	0.00097 s⁻¹ and 0.00049 s⁻¹	5500 M⁻¹ s⁻¹ and 3400 M⁻¹ s⁻¹	28.5	6A-16 (antibody, V domains shown, Mouse hybridoma antibody, tested as hybridoma supernatant (mouse IgG, detected or captured via anti-mouse IgG Fc); also called anti-MS4A6A antibody 6A-16) VH: EVQLQQSGPELVKPGASVKISCKASGYSFTGYYIHWVKESHVKSLEWIGRINPKNGVTSYNQNFKDKASLTVDRSSSTAYMDLYSLTSEDSAVYYCASTFITGWGQGTTVTVSS VL: DVLLTQAPLSLPVSLGDQASISCRSSQTIVHSDGNTYLEWYLQKPGQSPKLLIYTVSNRFSGVPDRFSGSGSGTDFTLKISRVEAEDLGVYYCFQGSHVPWTFGGGTKLEIK
